This assay concerns the target SARS-CoV-2 Spike glycoprotein trimer immunogen (stabilized, soluble ectodomain) (SARS-CoV-2 | not stated) (UniProt P0DTC2). Briefly: negative stain electron microscopy.

Broadly, the stoichiometry N is a count of units in the complex or per binding partner. With “SARS-CoV-2 Spike glycoprotein trimer immunogen (stabilized, soluble ectodomain) (from UniProt P0DTC2 14-1208)”, the stoichiometry N came out at 3.
